According to patent publication US20220162341A1 (published 2022):

Key:
[1] = target: T1, ASPH (aspartyl (asparaginyl) β-hydroxylase) (Homo sapiens (Human)) (UniProt Q12797); test: SPR (SensiQ Pioneer), antibody captured via Protein G, ASPH as analyte
T1 sequence: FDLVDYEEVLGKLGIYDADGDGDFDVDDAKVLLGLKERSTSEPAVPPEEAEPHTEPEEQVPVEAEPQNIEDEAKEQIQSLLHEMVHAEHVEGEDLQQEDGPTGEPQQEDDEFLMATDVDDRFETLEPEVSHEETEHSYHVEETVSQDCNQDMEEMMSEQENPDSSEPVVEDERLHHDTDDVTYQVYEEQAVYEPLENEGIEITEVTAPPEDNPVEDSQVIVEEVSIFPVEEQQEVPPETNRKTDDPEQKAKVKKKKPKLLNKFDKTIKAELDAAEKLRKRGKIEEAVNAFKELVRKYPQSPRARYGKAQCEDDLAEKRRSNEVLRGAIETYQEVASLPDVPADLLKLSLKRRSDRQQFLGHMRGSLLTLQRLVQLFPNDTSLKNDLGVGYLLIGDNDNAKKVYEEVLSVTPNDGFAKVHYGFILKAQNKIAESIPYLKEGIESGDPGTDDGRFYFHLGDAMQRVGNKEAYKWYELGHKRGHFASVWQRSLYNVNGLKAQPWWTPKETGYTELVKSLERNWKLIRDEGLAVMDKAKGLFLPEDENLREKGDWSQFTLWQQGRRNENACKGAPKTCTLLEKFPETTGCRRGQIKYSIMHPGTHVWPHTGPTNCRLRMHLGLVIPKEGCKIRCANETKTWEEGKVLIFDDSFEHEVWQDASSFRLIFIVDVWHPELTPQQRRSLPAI

[2] = target: T2, ASPH (aspartyl (asparaginyl) β-hydroxylase) (Homo sapiens (Human), UniProt Q12797 75-758, limits assumed); test: as above
T2 construct: The antibodies were raised against a peptide of human ASPH; also called the ASPH protein
T2 sequence: T1 sequence

B1: 5H4/5K3 (antibody, V domains shown)
VH: QSLEESGGDLVKPGASLTLTCKASGFDFSSNAMCWVRQAPGKGPEWIACIDNGDGSTDYATWAKGRFTISKTSSTTVTLQMTSLTAADTATYFCTRNFNLWGQGTLVTVSS
VL: AQVLTQTASSVSAAVGGTVTISCQSSQSVYDNNRLAWFQQKPGQPPKLLIYETSKLASGVPLRFKGSGSGTQFTLTISDLECDDAATYYCLGSYSGYIYTFGGGTEVVVKG
Work on B1 yielded a Kd [1] of 144 nM, a koff [1] of 0.00243 s⁻¹ and a kon [1] of 16800 M⁻¹ s⁻¹.

B2: 5H1/5K1 (antibody, V domains shown)
VH: B1 VH
VL: AQVLTQTASSVSAAVGGTVTISCQSSQSVYDNNRLAWFQQKPGQPPKLLIYETSKLASGVPLRFKGSGSGTQFTLTISDLECDDAATYYCLGSYSGYIYTFGGGTEVVVK
In the case of B2, the Kd [2] is reported as 118 nM and the kon [2] is reported as 20400 M⁻¹ s⁻¹.
